This note sets out measurements from paper PMC4865400.

In assay [1] the target is toxin-binding region from T. ni cadherin (TnCAD-FL) (Trichoplusia ni). Kind of assay: BLI. A general note: In BLI a coated tip is dipped into the sample, and binding shifts an interference pattern.
Assay [2] deals with SH2 domain of ABL1 kinase fused to the 434 phage cI repressor (UniProt P00519). Kind of assay: two-hybrid.

Regarding “wild-type Cry1Ac, trypsin-activated (from UniProt P05068 1-1178) (natural protein)”, the Kd – broadly, the concentration at which binding is half-saturated – in assay [1] was > 1 mM.

In the case of “wild-type HA4 monobody fused to RpoZ (designed binder)”, in assay [2], the fold transcriptional activation was > 200 fold.
